Experimental findings from US20110135636A1 (SYMPHOGEN A S, published 2011) are described below.

Experiment [1] concerns the target T1, recombinant human EGFR extracellular domain with 6xHis (human, UniProt P00533 25-645).
T1 construct: In-house produced; also called 6xHis EGFR ECD; soluble human EGFR ECD; not shown: 6xHis tag
Description: SPR, EGFR ECD without competitor. The protocol:
(§1) SPR analysis was performed on a Biacore 3000 machine containing four flow cells. A CM5 Biacore chip was conjugated with 10,000 Resonance units (Ru) polyclonal anti-His antibody to flow cells 1-4 according to the manufacturer's instructions. […] Immediately after antigen injection the maximal binding of the Anti-EGFR mAb without competition was established in each flow cell during a reference run. Briefly 5 μl antibody at a concentration of 40 μg/ml was injected over all flow cells with captured EGFR followed by stripping of the antibody/antigen complex with a low pH acid wash (10 sec. contact time with 10 mM Glycine-HCl, pH2). After the determination of Anti-EGFR antibody maximal binding to each flow cell, a competition run was performed during the same Biacore cycle. Flow cells were first saturated with EGFR ECD antigen followed by injection of different reference antibodies or Anti-EGFR antibodies into separate flow cells using the same antigen saturating conditions as outlined above. This step was immediately followed by a second injection of Anti-EGFR antibody over the flow cell saturated with EGFR antigen and competition antibody to minimize the dissociation of either antigen or blocking antibody. Then the antibody/antigen complexes were stripped off with a low pH acid wash (10 sec. contact time with 10 mM Glycine-HCl, pH 2) and the whole cycle beginning with the reference run was repeated with a new Anti-EGFR antibody. The degree of inhibition of tested Anti-EGFR antibodies were determined by comparing the Ru max value of the individual Anti-EGFR antibody before and after competition by introduction of report points recorded two seconds before and after injection of each sample.
Background: Surface plasmon resonance follows binding to a sensor surface in real time, without labels.

The target in experiment [2] is T1, recombinant human EGFR extracellular …. Description: SPR competition, competitor 1042. The protocol: as §1
Experiment [3] has as its target T2, full length human EGFR expressed on the cell surface (human, UniProt P00533 25-1210).
T2 construct: whole, on cells; also called EGFR on A431-NS cells; EGFR on HN5 cells
Description: cell ELISA, IgG titrated on paraformaldehyde-fixed A431-NS cells; given as ED50. The method, then: (§2) Cell ELISA: The relative binding affinities defined as the molar concentration giving the half maximal OD (ED50) were determined by antibody titrations on A431-NS cells. Briefly, 10,000 A431-NS cells were grown in 96 well ELISA plates containing DMEM with added 0.5% FCS and 1% P/S at 37° C., 5% CO₂ overnight. […] Then 50 μl of a secondary Goat-anti-Human (Fab specific) HRP conjugate diluted 1:5000 in DMEM containing 1% BSA was added and incubated on ice for 30 min. Finally wells were washed four times with PBS and plates developed by adding 50 μl/well TMB Plus substrate and read at 620 nm every 5-15-30 min. After incubation with substrate the reaction was stopped by addition of 1 M H₂SO₄ and absorbance read at 450 nm. The functional affinity expressed as ED50 values were calculated by subtraction of the average background binding with secondary reagent only, followed by normalization of the binding curves by plotting % maximal binding relative to each antibody tested.
A general note: In an ELISA, binding on a coated surface is turned into a signal by an enzyme label.

In experiment [4] the target is T3, full length Cynomolgus EGFR expressed on CHO cells (Cynomolgus monkey (Macaca fascicularis), UniProt P55245 25-1210 (rhesus entry)).
T3 construct: The entry was cloned including the signal peptide; also called Cynomolgus full length EGFR
Description: FACS on CHO cells transfected with full length Cynomolgus EGFR. The protocol:
(§3) Bound antibody was detected with a PE labelled goat F(ab′)₂ anti-human IgG FC. Gating was performed on uniform cells (SCC/FCS properties) expressing EGFR. Binding is expressed as % maximal antibody binding at 1 nM concentration.
(§4) Briefly quantitative FACS analysis was performed on a BD FACS array Bioanalyzer System to determine the number of EGFR molecules expressed on the surface of CHO cells transfected with either Human or Cynomolgus full length EGFR. […] Antibodies were incubated with cells for 14 hours on a shaker, to promote full antigen saturation at all antibody concentrations tested, while FACS buffer was added 0.02% NaN₃ and temperature kept at 4° C. to prevent receptor internalization. After incubation, cells were pelleted at 1200 RPM for 5 min at 4° C. and resuspended in 200 ul FACS buffer. Next cells were stained with a secondary Goat F(ab′)₂ anti-Human IgG FcGamma PE diluted 1:500 and incubated for 30 min at 4° C. on a shaker. Finally cells were washed twice in FACS buffer and analyzed on a BD FACS array Bioanalyzer System with gating on EGFR expressing CHO cells displaying uniform forward/side scatter properties.

Experiment [5] addresses T2, full length human EGFR expressed on the …. Description: cell ELISA, IgG titrated on paraformaldehyde-fixed A431-NS cells. The method, then:
as §2

Experiment [6] shares this target. Description: cell ELISA, IgG titrated on unfixed A431-NS cells. The protocol: (§5) Cell ELISA: The ELISA was performed essentially as described in example 15 with modifications. Cells were left unfixed to allow conformational EGFR flexibility after antibody additions. Briefly, 10,000 A431-NS cells were grown in 96 well ELISA plates containing DMEM with added 0.5% FCS and 1% P/S at 37° C., 5% CO₂ overnight. […] 25 μl DMEM containing 1% BSA was added to wells used for testing of IgG antibodies without added Fab fragments. […] Next, wells were washed four times with PBS and 50 μl of a secondary monoclonal Mouse-anti-Human (Fc specific) HRP conjugate diluted 1:5000 in DMEM containing 1% BSA was added and incubated on ice for 30 min. Finally wells were washed four times with PBS and plates developed by adding 50 μl/well TMB substrate and read at 620 nm every 5-15-30 min. After incubation with substrate the reaction was stopped by addition of 1 M H₂SO₄ and absorbance read at 450 nm. The functional affinity expressed as ED50 values were calculated by subtraction of the average background binding with secondary reagent only, followed by normalization of the binding curves by plotting % maximal binding relative to each antibody tested.
(§6) Investigations of antibody induced binding enhancements were determined by concurrent ELISA binding studies, employing same secondary antibody reagent and incubation times.

The target is the same in experiment [7]. Description: cell ELISA, IgG titrated on unfixed A431-NS cells; given as ED50. The method, then:
as §5, §6

The target is the same in experiment [8]. Description: FACS on CHO cells transfected with full length Human EGFR. The protocol:
as §3, §4

Experiment [9] deals with T1, recombinant human EGFR extracellular …. Description: SPR, reference cycle of the run with mix N=6. The protocol: as §1

B1: antibody 992 (antibody, human IgG1, kappa, V domains shown)
VH: EVQLQQPGSELVRPGASVKLSCKASGYTFTSYWMHWVKQRPGQGLEWIGNIYPGSRSTNYDEKFKSKATLTVDTSSSTAYMQLSSLTSEDSAVYYCTRNGDYYVSSGDAMDYWGQGTSVTVSS
VL: DIQMTQTTSSLSASLGDRVTISCRTSQDIGNYLNWYQQKPDGTVKLLIYYTSRLHSGVPSRFSGSGSGTDFSLTINNVEQEDVATYFCQHYNTVPPTFGGGTKLEIKR
notes: Chimeric mouse/human IgG1 kappa; the VL entry includes the human kappa constant region
For the molecule B1, the results for the Rumax reference cycle in experiment [1] and in experiment [9] were 81 Ru and 85 Ru, respectively. Also, the “% inhibition” value in experiment [2] worked out at 21%. The concentration giving a half-maximal response (EC50) in [3] turned out to be 300 pM; in experiment [7], 600 pM. In addition, the concentration giving a half-maximal response (EC50 (read off the curve)) in experiment [4] and in experiment [8] was roughly 10 pM throughout. Moreover, the “Log ED50” value is -0.56 in [5] and -0.24 in experiment [6].

B2: antibody 1257 (antibody, human IgG1, kappa, V domains shown)
VH: EVQLQQSGPELVKPGASVKIPCKTSGYTFTDYNMAWVKQSHGKSLEWIGDIIPNNGGAIYNQKFKGKATLTVDKSSSTASMELRSLTSEDTAVYFCARKNIYYRYDGAGALDYWGQGTSVTVSS
VL: QIVLTQSPAIMSASPGEKVTMTCSASSSVSYIYWYQQKPGSSPRLLIYDASNLASGVPVRFSGSGSGTSYSLTISRMEAEDAATYYCQQWSSYPITFGSGTKLEIKR
notes: Chimeric IgG1 kappa
Take B2: the “% inhibition” value in [2] was 16%.

B3: antibody 1284 (antibody, human IgG1, kappa, V domains shown)
VH: QVQLQQPGAELVKPGASVKLSCKASGYTFTSDWMHWMKQRPGQGLEWIGEINPSNGRSSYNEKFKSKATLTVDKSSSTAYMQLSSLTSEDSAVYYCARIGGIYVETYWGQGTLVTVSS
VL: DIVLTQSPASLAVSLGQRATISCRASQSVSTSTYSYMHWYQQKSGQPPKLLIKYASNLESGVPARFSGSGSGTDFTLNIHPVEEEDTATYYCQHSWEIPWTFGGGTKLEIKR
notes: Chimeric IgG1 kappa
Turning to B3, in [2], the “% inhibition” value is -1%.

B4: antibody 1260 (antibody, human IgG1, kappa, V domains shown)
VH: QVQLKESGPGLVAPSQSLSITCTVSGFSLTTYGVHWVRQPPGKGLEWLGVIWAGGSTNYNSALMSRLSIKKDNSKSQVFLKMNSLQTDDTAMYYCARAYGYNFDYWGQGTTLTVSS
VL: DIQMTQTTSSLSASLGDRVTISCSASQGITNYLNWYQQKPDGTVKLLIYYSSSLHSGVPSRFSGSGSGTDYSLTISNLEPEDIATYYCQQYSEIPYTFGGGTKLELKR
notes: Chimeric IgG1 kappa
In the case of B4, the “% inhibition” value in experiment [2] was 31%.

B5: antibody 1320 (antibody, human IgG1, kappa, V domains shown)
VH: QVQLQQPGAELVKPGASMKLSCKASGYTFTNYWMHWVKQRPGQGLEWIGEINPSNGRTNYNEKFKSKATLTVDKSSSTAYMQLSSLTSEDSGVYYCAKGGNYYDYDWDYWGQGTTLTVSS
VL: DIQMTQTTSSLSASLGDRVTISCSASQDISNYLNWYQQKPDGTVKLLIYHTSTLHSGVPSRFSGSGSGTDYSLTISNLEPEDIATYYCQQYSKLPWTFGGGTKLEIKR
notes: Chimeric IgG1 kappa
B5: the “% inhibition” value in experiment [2] was determined as 48%. Further, in experiment [4], the binding result is “no binding (tested: 1 nM)”. Also, the “EC50 (read off the curve)” value in experiment [8] is roughly 10 pM.

B6: antibody 1347 (antibody, human IgG1, kappa, V domains shown)
VH: QVQLKESGPGLVAPSQSLSITCTVSGFSLTGHGVNWVRQPPGKGLEWLGMIWGDGSTDYNSTLKSRLSISKDNSKSQVFLKMNSLQTDDTARYYCARGYGYLYYFDYWGQGTTLTVSS
VL: ENVLTQSPAIMSASPGEKVTMTCRASSSVSSSYLHWYQQKSGASPKLWIYSTSNLASGVPARFSGSGSGTSYSLTVNSVETEDAATYYCHQYSGFPFTFGSGTKLELKR
notes: Chimeric IgG1 kappa
Regarding B6, the Rumax reference cycle in experiment [1] stood at 75 Ru; in [9] it was 91 Ru.

B7: antibody 1030 (antibody, human IgG1, kappa, V domains shown)
VH: EVQLVESGGGLVKPGGSLKLSCAASGFTFSSYALSWVRQTPERRLEWVASISGVGSTYFPDSVKGRFTMSRDNARNILYLQMSSLRSEDTAMYYCARGSDGYFYAMDYWGQGTSVTVSS
VL: DIVLTQSPASLAVSLGQRATISCRASKSVSTSGYSFMHWYQLKPGQPPKLLIYLASNLESGVPARFSGSGSGTDFTLNIHPVEEEDAATYYCQHSREFPLTFGGGTKLEIKR
notes: Chimeric IgG1 kappa
With B7, the “% inhibition” value in [2] amounted to 11%. The concentration giving a half-maximal response (EC50) came out at 1500 pM in experiment [3] and 2200 pM in experiment [7]. The “Log ED50” value in experiment [5] was determined as 0.17; in experiment [6], 0.33. In experiment [9], the Rumax reference cycle was found to be 87 Ru.

B8: antibody 1208 (antibody, human IgG1, kappa, V domains shown)
VH: EVQLVESGGGLVKPGGSLKLSCAASGFAFSSYDMSWVRQTPEKRLEWVAYIGSGDDNTHYPDSVKGRFTISRHNAKNTLYLQMSSLKSEDTAMYYCARQKYGNYGDTMDYWGQGTSVTVSS
VL: DVVMTQTPLSLPVSLGDQASISCRSSQSLVHSNGNTYLHWYLQKPGQSPKLLIYKVSNRFSGVPDRFSGSGSGTDFTLKISRVEAEDLGVYFCSQSTHVPTFGGGTKLEIKR
notes: Chimeric IgG1 kappa; also called clone 1208
Turning to B8, the “% inhibition” value in experiment [2] is 9%.

B9: antibody 1261 (antibody, human IgG1, kappa, V domains shown)
VH: EVQLVESGGGLVKPGGSLKLSCAVSGFTFSSYVMSWVRQTPEKRLEWVATITSGGRNIYYLDSVKGRFTISRDNAKNTLYLQMSSLRSEDTAMYYCARHEDYRYDGYYAMDYWGQGTSVTVSS
VL: QIVLTQSPAIMSASPGEKVTITCSASSSVSYMHWFQQKPGTSPKLWIYSTSNLASGVPARFSGSGSGTSYSLTISRMEAEDAATYYCQQRSSYPYTFGGGTKLELKR
notes: Chimeric IgG1 kappa
Take B9: the Rumax reference cycle in [1] turned out to be 157 Ru; in [9] it was 135 Ru. Also, the “% inhibition” value in [2] is -18%.

For orientation: % inhibition means the relative decrease from the control value, in per cent. As usually defined, the EC50 is the concentration giving half of the maximal effect. For orientation: EC50 (read off the curve) means the midpoint of the concentration-response curve.
